From US20090053138

Experiments:
[1] = tested on: T1, VEGF (Homo sapiens ?), P15692-4; test: FP filter; conditions: nitrocellulose dot blot
T1 sequence: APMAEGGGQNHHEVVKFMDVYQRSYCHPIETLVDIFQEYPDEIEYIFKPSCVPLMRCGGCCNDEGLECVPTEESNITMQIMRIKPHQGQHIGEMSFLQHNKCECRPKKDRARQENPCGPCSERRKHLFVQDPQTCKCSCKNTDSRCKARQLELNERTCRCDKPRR

PDGF-AB (Homo sapiens) = PDGF-AB (Homo sapiens) (UniProt P04085+P01127); test: competition; conditions: DNA with s1 fU6 fC8 mG9; s2 mG5 mG7 fU10 fC11 mA12; s3 fC5 fC6 fU7 mG8 (f=2'-F, m=2'-OMe); HEG spacers between segments; 3'-inverted dT; dot blot; p348 prints uM, legend prints pM
[2] = molecular target: PDGF-BB (Rattus norvegicus) (UniProt Q05028); test: competition; conditions: DNA with s1 fU6 fC8 mG9; s2 mG5 mG7 fU10 fC11 mA12; s3 fC5 fC6 fU7 mG8 (f=2'-F, m=2'-OMe); HEG spacers between segments; 3'-inverted dT; equal affinity to …
[3] = tested on: PDGF-AA (Homo sapiens), P04085-2; test: competition; conditions: PEG-conjugated ARC513 (PEG size per image, not given); 2'-OMe as ARC513; PEG spacers; figure legend states no binding to PDGF-AA

Sequence of PDGF-BB (Rattus norvegicus) (Q05028 74-182): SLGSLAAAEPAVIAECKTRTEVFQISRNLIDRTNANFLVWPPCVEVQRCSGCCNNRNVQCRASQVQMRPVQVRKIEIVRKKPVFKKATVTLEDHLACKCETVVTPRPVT
Sequence of PDGF-AB (Homo sapiens) (P01127 82-190, chain 2 of 2, other chains not shown): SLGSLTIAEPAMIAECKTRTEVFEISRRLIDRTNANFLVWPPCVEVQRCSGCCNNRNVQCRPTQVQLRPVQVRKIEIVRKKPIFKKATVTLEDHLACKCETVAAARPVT

Sequence “CAGGCTACGAUGCAGUUUGAGAAGUCGCGCAUCGTAGAGCATCAGAAATGATCCTG [TK.131.012.A]” has a Kd ([1]; ARC126 part deoxy, ARC245 part 2'-OMe, dGdAdAdA linker) of 10 nM.

For CAGGCUACGCGTAGAGCAUCATGATCCUG [ARC126], the Kd (PDGF-AB (Homo sapiens)) was 0.0001 µM and the Kd [2] was 0.1 nM.

AUGCAGUUUGAGAAGUCGCGCAU [ARC245] was tested, and the Kd ([1]; all 2'-OMe) was 2 nM.

“CAGGCTACGUGCAGUUUGAGAAGUCGCGCACGTAGAGCATCAGAAATGATCCTG [TK.131.012.B]” was tested, and the Kd ([1]; ARC126 part deoxy, ARC245 part 2'-OMe (first mA-mU pair removed), dGdAdAdA linker) was 5 nM.

In the case of “CCCAGGCTACGCGTAGAGCAUCATGATCCTGGG [ARC594 (AX102)]”, the Kd [3] is reported as 2.6 nM.
